Measurements from article PMC2212970.
Like-named read-outs stand apart in the source and are kept apart here.

Experiments:
Assay in all cases: EMSA
[1] = target: T1, SLPI (secretory leucoprotease inhibitor) (UniProt P03973 26-132)
[2] = target: NF-kB p65 (UniProt Q04206 1-551)
[3] = target: T1, SLPI (secretory leucoprotease inhibitor); remark: listed apart in the source

T1 sequence (P03973 26-132): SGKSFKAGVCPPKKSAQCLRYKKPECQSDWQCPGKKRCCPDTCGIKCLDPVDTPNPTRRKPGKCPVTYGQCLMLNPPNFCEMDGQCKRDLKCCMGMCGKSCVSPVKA
NF-kB p65, sequence (Q04206 whole entry): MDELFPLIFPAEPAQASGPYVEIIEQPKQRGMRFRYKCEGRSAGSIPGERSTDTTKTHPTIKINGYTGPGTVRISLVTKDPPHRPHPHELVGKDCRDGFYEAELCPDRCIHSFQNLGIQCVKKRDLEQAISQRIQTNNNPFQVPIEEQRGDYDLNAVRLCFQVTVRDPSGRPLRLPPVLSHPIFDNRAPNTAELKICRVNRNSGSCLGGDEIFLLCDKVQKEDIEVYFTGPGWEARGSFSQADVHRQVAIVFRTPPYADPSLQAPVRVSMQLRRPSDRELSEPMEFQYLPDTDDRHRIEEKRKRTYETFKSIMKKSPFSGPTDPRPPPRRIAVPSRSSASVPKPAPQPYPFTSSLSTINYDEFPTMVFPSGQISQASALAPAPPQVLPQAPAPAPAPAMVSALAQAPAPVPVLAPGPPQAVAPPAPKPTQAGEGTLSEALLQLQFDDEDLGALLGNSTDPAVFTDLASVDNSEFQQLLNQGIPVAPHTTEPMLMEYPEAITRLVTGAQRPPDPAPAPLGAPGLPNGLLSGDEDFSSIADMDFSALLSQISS

Binder | binding result [1] | binding result [2] | binding result [3]
GATA-1 consensus (dsDNA) DNA 1: AATTGGACCGTATCTCCC DNA 2: GGGAGATACGGTCCAATT | no binding | – | –
AP-1 consensus (dsDNA) DNA 1: CGCTTGATGAGTCAGCCGGAA DNA 2: TTCCGGCTGACTCATCAAGCG | binds | – | –
NF-kB consensus WT (dsDNA) DNA 1: AGTTGAGGGGACTTTCCCAGGC DNA 2: GCCTGGGAAAGTCCCCTCAACT | – | binds | binds
Sp-1 consensus (dsDNA) DNA 1: ATTCGATCGGGCGGGGCGAG DNA 2: CTCGCCCCGCCCGATCGAAT | no binding | – | –
CREB consensus (dsDNA) DNA 1: AGAGATTGCCTGACGTCAGACAGCTAG DNA 2: CTAGCTGTCTGACGTCAGGCAATCTCT | no binding | – | –
